Laboratory results reported in patent US20130224224A1 (Boehringer Ingelheim, published 2013).
Where a chain is given by its changes, count along the chain named.

T1: human CX3CR1 (human, UniProt P49238 1-355)
T1 construct: overexpressed on CHO, BA/F3 or HEK293T cells; also called huCX3CR1; hCX3CR1
T1 sequence: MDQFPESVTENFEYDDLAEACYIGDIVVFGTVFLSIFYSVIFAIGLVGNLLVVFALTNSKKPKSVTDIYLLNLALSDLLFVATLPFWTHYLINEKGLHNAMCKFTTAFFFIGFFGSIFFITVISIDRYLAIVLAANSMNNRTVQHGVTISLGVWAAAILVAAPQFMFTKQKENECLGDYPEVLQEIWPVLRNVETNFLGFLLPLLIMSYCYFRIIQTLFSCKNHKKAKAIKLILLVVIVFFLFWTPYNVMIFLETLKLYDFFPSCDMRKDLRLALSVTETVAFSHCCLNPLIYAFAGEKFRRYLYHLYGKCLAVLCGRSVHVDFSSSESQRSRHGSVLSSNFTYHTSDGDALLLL

T2: cynomolgus CX3CR1 (cynomolgus, UniProt P49238 1-355 (human entry))
T2 construct: transiently expressed on HEK293T cells; also called cyCX3CR1; cyno CX3CR1
T2 chain: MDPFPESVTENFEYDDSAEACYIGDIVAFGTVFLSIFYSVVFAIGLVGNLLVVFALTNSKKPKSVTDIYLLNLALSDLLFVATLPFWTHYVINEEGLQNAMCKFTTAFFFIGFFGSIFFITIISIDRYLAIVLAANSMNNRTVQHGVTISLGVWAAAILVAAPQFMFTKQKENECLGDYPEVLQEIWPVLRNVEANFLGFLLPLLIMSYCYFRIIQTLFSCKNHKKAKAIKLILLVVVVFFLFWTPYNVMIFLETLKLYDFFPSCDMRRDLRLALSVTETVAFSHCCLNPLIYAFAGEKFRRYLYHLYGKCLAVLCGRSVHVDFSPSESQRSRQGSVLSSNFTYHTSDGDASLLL

B1: CX3CR1BIIPMP18E6 (VHH)
VHH: KVQLVESGGGLVQPGGSLRLSCATSGTIFSNNAMGWYRQAPGKKRDLVASISSSGSTNYADSVKGRFTVSRDNDKNTGYLQMNSLKPEDTGVYYCTLDARRGWNTAYWGQGAQVTVSS
notes: family 13; also called 18E06; CX3CR1BII18E06; not shown: C-terminal c-myc and His6 tags
B2: CX3CR1BIIPMP54A7 (VHH)
VHH: EVQLVESGGGSVQAGESLRLSCAASGTIFSSNAMAWYRQAPGKQRDLVAGINSVDITKYADSVKGRFTISRDNAKNTVYLQMNSLKPEDTAVYYCTSDPRRGWNTRYWGQGTQVTVSS
notes: also called 54A07; not shown: C-terminal c-myc and His6 tags
B3: CX3CR1BIIPMP54A12 (VHH)
VHH: B2 VHH with T27S, G50V, D55G, R71G, P99A, N104D
notes: also called CX3CR1BII54A12; not shown: C-terminal c-myc and His6 tags
B4: CX3CR1BIIPMP54D5 (VHH)
VHH: EVQLVESGGGSVQAGESLRLSCAASGSIFSSNAMAWYRQAPPGKQRDLVALINSVGITKYADSVKGRFTISSDNAKNTVYLEMNSLKPEDTAVYYCTSDGRRGWDTRYWGQGTQVTVSS
notes: also called 54D05; CX3CR1BII54D5; not shown: C-terminal c-myc and His6 tags

Each binder was assayed against T1, human CX3CR1 (assay: competition FACS, BA/F3-huCX3CR1; competitor alexa647-labeled 66B02).
From the text: A competitive binding experiment was setup in order to determine whether the VHHs bind overlapping epitopes on CX3CR1. For this, the VHH 66B02 labeled with alexa647 was used in a competition FACS on the BA/F3 cells expressing huCX3CR1. Representative VHHs from the three functional families were used as competitors for the binding of the labeled 66B02.
B1 was tested, and the “% block” value was 100% and the IC50 was 2.3 nM.

These binders were tested against T1, human CX3CR1 (assay: cell-based or functional assay).
For B2, the “% block, fractalkine induced chemotaxis” value was 45% and the “IC50, fractalkine induced chemotaxis” value was 50 nM. For B3, the “% block, fractalkine induced chemotaxis” value was 84% and the “IC50, fractalkine induced chemotaxis” value was 80 nM. With B1 the “% block, fractalkine induced chemotaxis” value was 17%. With B4 the “% block, fractalkine induced chemotaxis” value was 81% and the “IC50, fractalkine induced chemotaxis” value was 70 nM.

Biological target: T2, cynomolgus CX3CR1
Assay: A647-fractalkine competition FACS, HEK293T cynomolgus CX3CR1
From the text: (§1) Periplasmic extracts were screened in a human CX3CR1/human Fractalkine FACS competition assay to assess the blocking capacity of the expressed VHHs. Human CX3CR1 was presented on CHO cells overexpressing CX3CR1. Both a setup using cells harvested from an actively growing culture and a setup using frozen cells was used. As a detection reagent labeled fractalkine was used (R&D Systems, Minneapolis, Minn., USA) labeled with alexa647 (A647-Fractalkine) at a degree of labeling of 1. To setup the assay, first a titration series of the labeled fractalkine was performed on the CHO-huCX3CR1 cells in order to determine the EC50 value for binding. Initially screening was performed at a higher concentration of fractalkine (3 nM) to increase the assay robustness. To increase the sensitivity of the screening to a maximum, the EC30 concentration (1 nM) was chosen for subsequent screening. In brief 50 μl of periplasmic extract was added to 6 nM labeled fractalkine (50 μ;) and 200 000 CHO-huCX3CR1 cells. After one hour incubation at 4 C, cells were washed three times before read out was performed on a FACS Array (Becton Dickinson). First a gate was set on the intact cells as determined from the scatter profile. Next, dead cells were gated out by their fluorescence profile from the PI stain (Sigma, St Louis, US). The fluorescence profile from the alexa647 label was determined for each sample and used for calculation of blocking capacity. As controls, conditions were taken along where there was no VHH present in the peri extract or a known irrelevant VHH and samples were included where excess cold fractalkine was included. For each sample the percentage block was determined using the control samples to determine the assay window.
(§2) For later identified VHHs, a human Fractalkine competition FACS was set up using human or cynomolgus CX3CR1 expressed in HEK293T cells. Both the human and the cynomolgus receptor was transiently transfected in HEK293T cells and transfections were matched by the binding of the labeled ligand, human fractalkine. The competition was evaluated using the EC30 concentration of fractalkine and as such obtained IC50 values are a good estimate of the Ki value, a measure for affinity (Table 22). The experiment was performed as described in Example 4.
With B2 the “% block” value was 69% and the IC50 was 280 nM. In the case of B3, the “% block” value is reported as 94% and the IC50 is reported as 67 nM. With B4 the “% block” value was 91% and the IC50 was 64 nM.

Biological target: T2, cynomolgus CX3CR1
Assay: A647-fractalkine competition FACS, cynomolgus against human CX3CR1
From the text: as §1, §2
B2 was tested, and the “ratio (cynomolgus/human IC50)” value was 12.3. With B3 the “ratio (cynomolgus/human IC50)” value was 9.85. For B4, the “ratio (cynomolgus/human IC50)” value was 12.2.

Each binder was assayed against T1, human CX3CR1 (assay: A647-fractalkine competition FACS, HEK293T human CX3CR1).
From the text: as §1, §2
With B2 the “% block” value was 52% and the IC50 was 23 nM. For B3, the “% block” value was 96% and the IC50 was 6.8 nM. In the case of B4, the “% block” value is reported as 94% and the IC50 is reported as 5.3 nM.

These binders were tested against T1, human CX3CR1 (assay: A647-fractalkine competition FACS, CHO-huCX3CR1).
Summary of the method: (§3)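 VHHs compete with Alexa647-fractalkine for CX3CR1 on CHO, BA/F3 or transiently transfected HEK293T cells, with the labeled-ligand amount varying between setups. After 1 h at 4 °C and washing, PI-negative intact cells were gated by flow cytometry. IC50 follows from percentage block, with the window set by no/irrelevant-VHH and excess cold fractalkine controls.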
In the case of B2, the “% block” value is reported as 78% and the IC50 is reported as 11 nM. With B3 the “% block” value was 104% and the IC50 was 2.1 nM. B1 was tested, and the “% block” value was 33% and the IC50 was 1.8 nM. B4 was tested, and the “% block” value was 102% and the IC50 was 2.7 nM.

Biological target: T2, cynomolgus CX3CR1
Assay: FACS binding on cynomolgus CX3CR1 cells, anti-c-myc detection
Procedure: (§4) Initially, a FACS based binding setup was used to evaluate the cynomolgus cross reactivity. For this, the VHHs were incubated with the respective cells for 30 minutes at 4° C. followed by three wash steps and subsequently incubated with the detection reagents. As detection, a mouse anti-cmyc antibody (Serotec, MCA2200) followed by a goat anti-mouse antibody coupled to PE (Jackson 115-116-071) was used, each incubation for 30 minutes at 4° C., followed by three wash steps.
B2 was tested, and the EC50 was 30 nM. B3 gave an EC50 of 110 nM. In the case of B1, the EC50 is reported as 14 nM. Binder B4 has an EC50 of 50 nM.

Each binder was assayed against T1, human CX3CR1 (assay: FACS binding on human CX3CR1 cells, anti-c-myc detection).
Procedure: as §4
For B2, the EC50 was 540 nM. With B3 the EC50 was 35 nM. With B1 the EC50 was 1.5 nM. With B4 the EC50 was 0.84 nM.

Biological target: T2, cynomolgus CX3CR1
Assay: FACS binding, cynomolgus against human CX3CR1
Procedure: as §4
With B2 the “ratio (cynomolgus/human EC50)” value was 0.1. With B3 the “ratio (cynomolgus/human EC50)” value was 3.3. In the case of B1, the “ratio (cynomolgus/human EC50)” value is reported as 9. In the case of B4, the “ratio (cynomolgus/human EC50)” value is reported as 59.6.

What follows are binders tested against T1, human CX3CR1 (assay: A647-fractalkine competition FACS, HEK293-huCX3CR1).
From the text: as §1
The blocking capacity towards the ligand fractalkine of the VHHs was evaluated in a human CX3CR1 competition FACS as outlined in Example 4. Either CHO-huCX3CR1 cells, BA/F3-huCX3CR1 cells or transiently transfected HEK293T cells were used. The amount of labeled ligand used in the different competition setups was also varied. The IC₅₀ values for VHHs blocking the interaction of human fractalkine to human CX3CR1 are depicted in Table 19.
With B2 the “% block” value was 52% and the IC50 was 23 nM. B3 was tested, and the “% block” value was 96% and the IC50 was 6.8 nM. With B4 the “% block” value was 94% and the IC50 was 5.3 nM.

These binders were tested against T1, human CX3CR1 (assay: A647-fractalkine competition FACS, BA/F3-huCX3CR1).
Summary of the method: as §3
With B2 the “% block” value was 81% and the IC50 was 15 nM. For B3, the “% block” value was 100% and the IC50 was 4 nM. For B1, the “% block” value was 71% and the IC50 was 2.8 nM. B4 was tested, and the “% block” value was 99% and the IC50 was 5.5 nM.

These binders were tested against T1, human CX3CR1 (assay: periplasmic extract, A647-fractalkine competition FACS, CHO-huCX3CR1).
Summary of the method: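 Periplasmic VHH extracts competed with Alexa647-fractalkine (EC30, 1 nM; 3 nM initially) for binding to live or frozen CHO cells overexpressing human CX3CR1, 1 h at 4 C. FACS read on intact, PI-negative cells; percent block derived using no-VHH, irrelevant-VHH and excess cold fractalkine controls.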
For B2, the “% block” value was 68.9%. For B3, the “% block” value was 93.8%. B1 was tested, and the “% block” value was 53.1%. In the case of B4, the “% block” value is reported as 87.8%.
